For 43 molecules, Kd results are on record in patent US20260070987A1.

First the molecules themselves.
B1: equine IgG4 Y436R (antibody, part only; not given: variable domains, not shown: another chain or arm of the molecule)
constant: ASTTAPKVFPLASHSAATSGSTVALGCLVSSYFPEPVTVSWNSGALTSGVHTFPSVLQSSGLYSLSSMVTVPASSLKSQTYICNVAHPASSTKVDKKIVIKECNGGCPAECLQVGPSVFIFPPKPKDVLMISRTPTVTCVVVDVGHDFPDVQFNWYVDGVETHTATTEPKQEQFNSTYRVVSVLPIQHKDWLSGKEFKCKVNNKALPAPVERTISKPTGQPREPQVYVLAPHRDELSKNKVSVTCLVKDFYPTDIDIEWKSNGQPEPETKYSTTPAQLDSDGSYFLYSKLTVETNRWQQGTTFTCAVMHEALHNHRTEKSVSKSPGK
B2: equine IgG4 Y436W (antibody, part only; not given: variable domains, not shown: another chain or arm of the molecule)
constant: B1 constant with R316W
B3: equine IgG4 T286S (antibody, part only; not given: Variable domains, not shown: another chain or arm of the molecule)
constant: B1 constant with T164S, R316Y
B4: equine IgG4 T286V (antibody, part only; not given: variable domains, not shown: another chain or arm of the molecule)
constant: B1 constant with T164V, R316Y
B5: equine IgG4 T286Q (antibody, part only; not given: Variable domains, not shown: another chain or arm of the molecule)
constant: B1 constant with T164Q, R316Y
B6: equine IgG4 T286L (antibody, part only; not given: variable domains, not shown: another chain or arm of the molecule)
constant: B1 constant with T164L, R316Y
B7: equine IgG4 T286P (antibody, part only; not given: variable domains, not shown: another chain or arm of the molecule)
constant: B1 constant with T164P, R316Y
B8: equine IgG4 T286D (antibody, part only; not given: variable domains, not shown: another chain or arm of the molecule)
constant: B1 constant with T164D, R316Y
B9: equine IgG4 T286A (antibody, part only; not given: variable domains, not shown: another chain or arm of the molecule)
constant: B1 constant with T164A, R316Y
B10: equine IgG4 T286Y (antibody, part only; not given: variable domains, not shown: another chain or arm of the molecule)
constant: B1 constant with T164Y, R316Y
B11: equine IgG4 T286K (antibody, part only; not given: variable domains, not shown: another chain or arm of the molecule)
constant: B1 constant with T164K, R316Y
B12: equine IgG4 Y436V (antibody, part only; not given: variable domains, not shown: another chain or arm of the molecule)
constant: B1 constant with R316V
B13: equine IgG4 T286M (antibody, part only; not given: variable domains, not shown: another chain or arm of the molecule)
constant: B1 constant with T164M, R316Y
B14: equine IgG4 T286R (antibody, part only; not given: variable domains, not shown: another chain or arm of the molecule)
constant: B1 constant with T164R, R316Y
B15: equine IgG4 T286C (antibody, part only; not given: variable domains, not shown: another chain or arm of the molecule)
constant: B1 constant with T164C, R316Y
B16: equine IgG4 Y436T (antibody, part only; not given: variable domains, not shown: another chain or arm of the molecule)
constant: B1 constant with R316T
B17: equine IgG4 Y436S (antibody, part only; not given: variable domains, not shown: another chain or arm of the molecule)
constant: B1 constant with R316S
B18: equine IgG4 T286G (antibody, part only; not given: variable domains, not shown: another chain or arm of the molecule)
constant: B1 constant with T164G, R316Y
B19: equine IgG4 T286I (antibody, part only; not given: variable domains, not shown: another chain or arm of the molecule)
constant: B1 constant with T164I, R316Y
B20: equine IgG4 T286F (antibody, part only; not given: variable domains, not shown: another chain or arm of the molecule)
constant: B1 constant with T164F, R316Y
B21: equine IgG4 T286E (antibody, part only; not given: variable domains, not shown: another chain or arm of the molecule)
constant: B1 constant with T164E, R316Y
B22: equine IgG4 T286W (antibody, part only; not given: Variable domains, not shown: another chain or arm of the molecule)
constant: B1 constant with T164W, R316Y
B23: equine IgG4 T286H (antibody, part only; not given: variable domains, not shown: another chain or arm of the molecule)
constant: B1 constant with T164H, R316Y
B24: equine IgG1 T286Y (antibody, part only; not given: variable domains, not shown: another chain or arm of the molecule)
constant: ASTTAPKVFALAPGCGTTSDSTVALGCLVSGYFPEPVKVSWNSGSLTSGVHTFPSVLQSSGFYSLSSMVTVPASTWTSETYICNVVHAASNFKVDKRIEPIPDNHQKVCDMSKCPKCPAPELLGGPSVFIFPPNPKDTLMITRTPEVTCVVVDVSQENPDVKFNWYMDGVEVRYATTRPKEEQFNSTYRVVSVLRIQHQDWLSGKEFKCKVNNQALPQPIERTITKTKGRSQEPQVYVLAPHPDELSKSKVSVTCLVKDFYPPEINIEWQSNGQPELETKYSTTQAQQDSDGSYFLYSKLSVDRNRWQQGTTFTCGVMHEALHNHYTQKNVSKNPGK
B25: equine IgG1 M252K (antibody, part only; not given: variable domains, not shown: another chain or arm of the molecule)
constant: B24 constant with M140K, Y174T
B26: equine IgG1 Q311A (antibody, part only; not given: variable domains, not shown: another chain or arm of the molecule)
constant: B24 constant with Y174T, Q199A
B27: equine IgG1 Q311R (antibody, part only; not given: variable domains, not shown: another chain or arm of the molecule)
constant: B24 constant with Y174T, Q199R
B28: equine IgG1 Q311N (antibody, part only; not given: Variable domains, not shown: another chain or arm of the molecule)
constant: B24 constant with Y174T, Q199N
B29: equine IgG1 Q311F (antibody, part only; not given: variable domains, not shown: another chain or arm of the molecule)
constant: B24 constant with Y174T, Q199F
B30: equine IgG1 Q311I (antibody, part only; not given: variable domains, not shown: another chain or arm of the molecule)
constant: B24 constant with Y174T, Q199I
B31: equine IgG1 Q311L (antibody, part only; not given: Variable domains, not shown: another chain or arm of the molecule)
constant: B24 constant with Y174T, Q199L
B32: equine IgG1 Q311D (antibody, part only; not given: variable domains, not shown: another chain or arm of the molecule)
constant: B24 constant with Y174T, Q199D
B33: equine IgG1 Q311G (antibody, part only; not given: variable domains, not shown: another chain or arm of the molecule)
constant: B24 constant with Y174T, Q199G
B34: equine IgG1 Q311C (antibody, part only; not given: variable domains, not shown: another chain or arm of the molecule)
constant: B24 constant with Y174T, Q199C
B35: equine IgG1 Q311M (antibody, part only; not given: variable domains, not shown: another chain or arm of the molecule)
constant: B24 constant with Y174T, Q199M
B36: equine IgG1 Q311H (antibody, part only; not given: variable domains, not shown: another chain or arm of the molecule)
constant: B24 constant with Y174T, Q199H
B37: equine IgG1 Q311V (antibody, part only; not given: variable domains, not shown: another chain or arm of the molecule)
constant: B24 constant with Y174T, Q199V
B38: equine IgG1 M252F (antibody, part only; not given: variable domains, not shown: another chain or arm of the molecule)
constant: B24 constant with M140F, Y174T
B39: equine IgG1 Q311T (antibody, part only; not given: variable domains, not shown: another chain or arm of the molecule)
constant: B24 constant with Y174T, Q199T
B40: equine IgG1 Q311E (antibody, part only; not given: variable domains, not shown: another chain or arm of the molecule)
constant: B24 constant with Y174T, Q199E
B41: equine IgG1 Q311W (antibody, part only; not given: variable domains, not shown: another chain or arm of the molecule)
constant: B24 constant with Y174T, Q199W
B42: equine IgG1 Q311S (antibody, part only; not given: variable domains, not shown: another chain or arm of the molecule)
constant: B24 constant with Y174T, Q199S
B43: equine IgG1 Q311K (antibody, part only; not given: variable domains, not shown: another chain or arm of the molecule)
constant: B24 constant with Y174T, Q199K

Positions count from the first letter of the chain named. Names may count otherwise.

In this assay the target is equine FcRn (large alpha subunit p51) / equine beta-2-microglobulin complex, biotinylated (equine) (UniProt P30441). The assay is described as follows: SPR (Biacore), pH 6.
Sequence of UniProt P30441 (P30441 21-118, one chain of several): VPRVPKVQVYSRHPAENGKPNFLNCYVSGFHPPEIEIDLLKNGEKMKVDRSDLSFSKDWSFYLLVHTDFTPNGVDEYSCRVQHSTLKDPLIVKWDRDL
As a reminder, the Kd is the equilibrium constant for the complex coming apart. Lower therefore signals tighter binding. B1: the Kd is 48.3 nM. That is a double-digit nanomolar value.

B2 gave a Kd of 20.2 nM. In the case of B3, the Kd was determined as 24.1 nM. B4 gave a Kd of 15.3 nM. B5 displayed a Kd of 24.5 nM. In the case of B6, the dissociation constant Kd was 17.5 nM. The molecule B7 returned a Kd of 5.2 nM. Consider B8, for which the Kd came to 492 nM. B9 yielded an equilibrium dissociation constant (Kd) of 48.7 nM. Consider B10, for which the dissociation constant (Kd) is 26.9 nM. With B11 the figure was 24.7 nM; with B12, 13.2 nM; with B13, 20.3 nM. B14: the Kd was determined as 21.4 nM. B15 had an equilibrium dissociation constant (Kd) of 34.4 nM. For B16, the dissociation constant (Kd) was 27.2 nM.

Molecule B17 gave a Kd of 30.9 nM. The Kd values of the last two molecules are within 1.5-fold of each other. With B18 the figure was 23.3 nM; with B19, 13.3 nM; with B20, 22.2 nM. Molecule B21 had a dissociation constant Kd of 252 nM. Regarding B22, the equilibrium dissociation constant (Kd) came out at 45 nM. B23 showed an equilibrium dissociation constant (Kd) of 27.1 nM. The result for B24 reads 15 nM; that for B25, 36.7 nM; that for B26, 21 nM.

B27 came in with a Kd of 10.1 nM. Consider B28, for which the dissociation constant (Kd) amounted to 24.3 nM.

B29 registered a dissociation constant (Kd) of 20.3 nM. With B30 the figure was 12.6 nM; with B31, 16.1 nM. In turn, B32 showed a Kd of 54.6 nM.

B33 yielded an equilibrium dissociation constant (Kd) of 20.1 nM.

The molecule B34 had a dissociation constant Kd of 15.7 nM. In the case of B35, the Kd came to 12 nM.

Molecule B36 registered a Kd of 24.3 nM. With B37 the figure was 16.3 nM; with B38, 47.5 nM; with B39, 17.4 nM. As for B40, the Kd was found to be 67.3 nM. This Kd is about 3.9-fold higher than that of the molecule before. B41 gave a dissociation constant Kd of 21.2 nM. With B42, the Kd was found to be 24.4 nM. With B43, the Kd worked out at 14.7 nM.
